{
  "source": "patent US10273279B2",
  "about": "“Protease activated receptor-1 (PAR1) derived cytoprotective polypeptides and related methods” (THE SCRIPPS RESEARCH INSTITUTE, priority 2011, dated 2019)",
  "key": {"SEAP-PAR1 [1]": {"target": "T1, SEAP-PAR1 (Homo sapiens, UniProt P25116, R41A)", "T1 construct": "we created a full-length PAR-1 construct linked at the N-terminus to an alkaline phosphatase reporter group (SEAP); expressed in transfected cells", "T1 sequence (P25116 22-425 R41A)": "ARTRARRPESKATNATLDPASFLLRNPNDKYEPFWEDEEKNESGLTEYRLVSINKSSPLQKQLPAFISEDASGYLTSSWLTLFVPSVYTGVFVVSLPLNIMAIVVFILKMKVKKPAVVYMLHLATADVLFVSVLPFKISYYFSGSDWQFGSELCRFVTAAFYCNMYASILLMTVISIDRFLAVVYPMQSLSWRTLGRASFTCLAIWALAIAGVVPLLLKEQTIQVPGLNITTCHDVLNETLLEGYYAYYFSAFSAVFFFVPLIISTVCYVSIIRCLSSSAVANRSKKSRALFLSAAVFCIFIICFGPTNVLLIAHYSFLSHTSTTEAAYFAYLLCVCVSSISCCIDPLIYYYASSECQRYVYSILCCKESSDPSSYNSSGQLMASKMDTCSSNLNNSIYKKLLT", "experiment": "SEAP-PAR1 cleavage reporter on transfected HEK-293 cells (SEAP release)", "type": "cell-based", "details": "in the absence of EPCR", "excerpt": "(§1) To facilitate analysis of APC-mediated PAR-1 activation, we created a full-length PAR-1 construct linked at the N-terminus to an alkaline phosphatase reporter group (SEAP). Selection of stable cell lines expressing both endothelial protein C receptor (EPCR) (wt or E86A) and SEAP-PAR1 allowed for a reliable and reproducible analysis of EPCR-dependent PAR-1 activation by APC. Mass-spec analysis of cleavage fragments generated by APC of a synthetic PAR-1 N-terminal tail peptide (TR33-62) identified both Arg^41 and Arg^46 as potential cleavage sites for APC proteolysis, as noted above. […] R41Q-SEAP-PAR1 was cleaved by APC in the presence of EPCR. This surprising result was also obtained for R41A-SEAP PAR1.\n(§2) 2009; 113:5970-5978. SEAP-PAR1, either in the presence or absence of wt-EPCR, were transfected into HEK-293 cells to obtain stable cells expressing SEAP-PAR1 or wt-EPCR/SEAP-PAR1. Mutations in SEAP-PAR1 were introduced using the Quickchange method (Agilent). Cells were grown in 96-wells plates to confluency in Dulbeco's modified Eagle media (DMEM): Ham's F-12 (Invitrogen) supplemented with penicillin-streptomycin-glutamine (PSG) (Gibco) and 10% fetal bovine serum (Omega) in a humidified atmosphere at 37° C. and 5% CO2 Cells were washed with Hank's balanced salt solution (HBSS; Invitrogen) supplemented with 1.3 mM CaCl2, 0.6 mM MgCl2 and 0.1% endotoxin free BSA (Calbiochem) and incubated with APC. After 60 min, SEAP release was determined using 1-step PNPP (Pierce). Values were corrected for background activity derived from the same cells incubated in the absence of APC and expressed as a percentage of total SEAP available on the cell membrane."}, "SEAP-PAR1 [2]": {"target": "T2, SEAP-PAR1 (Homo sapiens, UniProt P25116, R41Q)", "T2 construct": "we created a full-length PAR-1 construct linked at the N-terminus to an alkaline phosphatase reporter group (SEAP); expressed in transfected cells", "T2 sequence (P25116 22-425 R41Q)": "T1 sequence (P25116 22-425 R41A) with A20Q", "experiment": "SEAP-PAR1 cleavage reporter on transfected HEK-293 cells (SEAP release)", "type": "cell-based", "details": "in the presence of EPCR", "excerpt": "as §1, §2"}},
  "note": "Changes are numbered by the printed parent chain.",
  "data": [
    {"substance": "APC: Activated Protein C, serine protease with anticoagulant and cytoprotective cell signaling activities", "values": [
      {"measurement": "cleavage of R41A-SEAP-PAR1", "setting": "SEAP-PAR1 [1]", "value": "did not cleave"}
    ]},
    {"substance": "thrombin", "values": [
      {"measurement": "cleavage of R41Q-SEAP-PAR1", "setting": "SEAP-PAR1 [2]", "value": "did not show any cleavage"}
    ]}
  ]
}
